The results in this text go back to patent US20090203602A1.

Experiment [1] concerns the target PRKCB1 (PKC beta I) Protein kinase C, beta 1, P05771. In words: cell-based or functional assay.
Experiment [2] concerns the target BRAF V599E V-raf murine sarcoma viral oncogene homolog B1 V599E mutation, P15056. In words: cell-based or functional assay.

With SGRPPMIVWFNRPFLIAVSHTHGQTILFMAKVINPVGA [D3 peptide], the % Inhibition mean amounted to 88% in experiment [1] and 99.8% in experiment [2].
